Assay results from patent US20160257957.

Columns and labels:
[1] = biological target: T1, Arc C-terminal protein (132-396 a.a.), Q63053
T1 chain: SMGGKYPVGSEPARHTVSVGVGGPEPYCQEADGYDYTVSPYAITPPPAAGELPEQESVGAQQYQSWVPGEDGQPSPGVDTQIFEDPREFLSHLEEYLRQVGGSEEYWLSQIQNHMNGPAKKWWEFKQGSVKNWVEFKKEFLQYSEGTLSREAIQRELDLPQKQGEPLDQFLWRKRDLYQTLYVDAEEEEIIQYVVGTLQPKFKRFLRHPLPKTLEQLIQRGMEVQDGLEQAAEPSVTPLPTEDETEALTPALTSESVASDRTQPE

[2] = biological target: T2, HHR23A (recombinant, wild type), P54725
T2 chain: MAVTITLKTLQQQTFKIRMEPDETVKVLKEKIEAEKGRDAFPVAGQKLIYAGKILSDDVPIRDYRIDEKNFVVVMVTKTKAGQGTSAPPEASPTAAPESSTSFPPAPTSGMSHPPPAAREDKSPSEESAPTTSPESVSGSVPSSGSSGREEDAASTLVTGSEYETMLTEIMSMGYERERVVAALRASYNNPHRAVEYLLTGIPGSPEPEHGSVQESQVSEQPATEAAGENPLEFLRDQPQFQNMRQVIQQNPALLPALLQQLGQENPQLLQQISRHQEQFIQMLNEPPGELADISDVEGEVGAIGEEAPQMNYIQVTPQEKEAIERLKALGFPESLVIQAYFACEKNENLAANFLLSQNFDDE

B1: Ube3A (recombinant) (protein)
chain: SGEPQSDDIEASRMKRAAAKHLIERYYHQLTEGCGNEACTNEFCASCPTFLRMDNNAAAIKALELYKINAKLCDPHPSKKGASSAYLENSKGAPNNSCSEIKMNKKGARIDFKDVTYLTEEKVYEILELCREREDYSPLIRVIGRVFSSAEALVQSFRKVKQHTKEELKSLQAKDEDKDEDEKEKAACSAAAMEEDSEASSSRIGDSSQGDNNLQKLGPDDVSVDIDAIRRVYTRLLSNEKIETAFLNALVYLSPNVECDLTYHNVYSRDPNYLNLFIIVMENRNLHSPEYLEMALPLFCKAMSKLPLAAQGKLIRLWSKYNADQIRRMMETFQQLITYKVISNEFNSRNLVNDDDAIVAASKCLKMVYYANVVGGEVDTNHNEEDDEEPIPESSELTLQELLGEERRNKKGPRVDPLETELGVKTLDCRKPLIPFEEFINEPLNEVLEMDKDYTFFKVETENKFSFMTCPFILNAVTKNLGLYYDNRIRMYSERRITVLYSLVQGQQLNPYLRLKVRRDHIIDDALVRLEMIAMENPADLKKQLYVEFEGEQGVDEGGVSKEFFQLVVEEIFNPDIGMFTYDESTKLFWFNPSSFETEGQFTLIGIVLGLAIYNNCILDVHFPMVVYRKLMGKKGTFRDLGDSHPVLYQSLKDLLEYEGNVEDDMMITFQISQTDLFGNPMMYDLKENGDKIPITNENRKEFVNLYSDYILNKSVEKQFKAFRRGFHMVTNESPLKYLFRPEEIELLICGSRNLDFQALEETTEYDGGYTRDSVLIREFWEIVHSFTDEQKRLFLQFTTGTDRAPVGGLGKLKMIIAKNGPDTERLPTSHTCFNVLLLPEYSSKEKLKERLLKAITYAKGFGML
[1]
  in vitro ubiquitination assay using purified recombinant proteins: Ube3A ubiquitinated Arc in vitro
[2]
  ubiquitination of HHR23A by Ube3A: this domain is required for Ube3A to ubiquitinate HHR23A
